We go through two molecules from article PMC11551957 (ACS Applied Materials & Interfaces, 2024).

The test deals with T1, MPER-TM(654-709) polypeptide (HIV-1, UniProt P04578).
T1 construct: also called MPER-TMD polypeptide; MPER-TMD construct
The test can be described thus: flow cytometry on cells; stable HEK293T cells expressing the antigen; 10^6 cells; Fab-mVenus variants at 2 μg/mL, 30 min, RT, FACS buffer (PBS, 0.1% FBS); mVenus fluorescence read; Env cells with or without preincubation with Ig-mD1.22 (20 μg/mL, 30 min). The following applies: one partner purified. For orientation: In flow cytometry, cells or beads pass a laser one at a time.

B1: 10E8 Fab-mVenus S65C conjugated with Fus4 (Fab, V domains shown)
VH: EVQLVESGGGLVKPGGSLRLSCSASGFDFDNAWMTWVRQPPGKGLEWVGRITGPGEGWSVDYAAPVEGRFTISRLNSINFLYLEMNNLRMEDSGLYFCARTGKYYDFWSGYPPGEEYFQDWGRGTLVTVSS
VL: SYELTQETGVSVALGRTVTITCRGDSLRSHYASWYQKKPGQAPILLFYGKNNRPSGVPDRFSGCASGNRASLTISGAQAEDDAEYYCSSRDKSGSRLSVFGGGTKLTVL
Consider B1, for which the binding result was “binds”.

B2: 10E8 Fab-mVenus S65C conjugated with Lin3 (Fab, V domains shown)
VH: B1 VH
VL: B1 VL
As to B2, the binding result was “binds”.
